Among the data in CN106146662A (UNIV SUN YAT SEN, dated 2016) are koff and MFI values, retold here.

In one test the target is T1, CD3-His蛋白(MP-5).
T1 chain: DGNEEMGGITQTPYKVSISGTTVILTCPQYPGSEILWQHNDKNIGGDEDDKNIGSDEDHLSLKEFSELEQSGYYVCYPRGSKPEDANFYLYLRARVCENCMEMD
Nature of the test: BLI (Octet RED96) off-rate screen, sdAb-SASA from expression medium captured on BSA-coated biosensor, 100 nM CD3 in solution, 1:1 Langmuir model, 30°C. For orientation: In BLI a coated tip is dipped into the sample, and binding shifts an interference pattern.

A further test addresses CD3 on Jurkat cells. Nature of the test: flow cytometry, culture supernatant on Jurkat cells. For orientation: Flow cytometry measures light scatter and fluorescence of single cells or particles in a stream.

B1: C84 (VHH)
VHH: QVQLQESGGGLVQAGGYLRLSCAVSGRTFSSYAMGWFRQAPGKEREFVAAINWSGGSTYYVDSVKGRFTISRDNAKNTVYLQMNSLKPEDTAVYYCAASGLGYTIVSASEYDYWGQGTQVTVSS
notes: Llama sdAb tested as sdAb-SASA protein in crude expression medium / culture supernatant; 3 nowhere in its text; also called 抗CD3单域抗体; sdAb; not shown: SASA fusion partner from the pFASEBA vector (sdAb-SASA protein)
One may read the koff as a measure of how fast the partners let go of each other. A high value points to a short-lived complex. Regarding B1, in the test with CD3-His蛋白(MP-5), the koff amounted to 2.84e-05 s⁻¹. The MFI with CD3 on Jurkat cells turned out to be 312 MFI.

B2: C62 (VHH)
VHH: QVQLQESGGGLVQAGGSLRLSCAASGRTFSNYHMGWFRQAPGKERELVAAISGSGGSTYYTDSVKGRFTISRNNAKNTMSLQMSNLKPEDTGVYYCTTPTEKGSSIDYWGQGTQVTVSS
notes: Llama sdAb tested as sdAb-SASA protein in crude expression medium / culture supernatant; 1 nowhere in its text; also called 抗CD3单域抗体; sdAb; not shown: SASA fusion partner from the pFASEBA vector (sdAb-SASA protein)
As to B2, in the test with CD3-His蛋白(MP-5), the koff is 5.32e-05 s⁻¹. In the test with CD3 on Jurkat cells, this molecule had an MFI of 283 MFI.
